According to US11701440B2, “Modified antibody and radioactive metal-labelled antibody” (NIHON MEDI-PHYSICS CO., LTD., priority 2018, dated 2023):

Test: Animal Experiment (1): radioactivity distribution of 111In-labeled NGA in organs after tail vein administration
Procedure: Five mice per group were slaughtered 5 minutes or 1 hour after the administration, the blood and organs of interest were recovered, and after measuring the organ weight, the radioactivity was measured with an auto-well gamma counter.

[1] = 5 minutes after the administration, tail vein, male ddY mouse
[2] = 1 hour after the administration, tail vein, male ddY mouse
[3] = mouse, in vivo, iv, 11.1 kBq/8 ug protein/100 uL/mouse, 5 min
[4] = mouse, in vivo, iv, 11.1 kBq/8 ug protein/100 uL/mouse, 1 h

Substance: ^111In-DO3ABn-Gly-Lys-NGA
- radioactivity (% ID) Blood [1]: 0.1 ± 0.2 % ID
- radioactivity (% ID) Heart [1]: 0.0 ± 0.0 % ID
- radioactivity (% ID) Kidney [1]: 0.1 ± 0.0 % ID
- radioactivity (% ID) Liver [1]: 89.5 ± 3.4 % ID
- radioactivity (% ID) Lung [1]: 0.1 ± 0.1 % ID
- radioactivity (% ID) Pancreas [1]: 0.0 ± 0.0 % ID
- radioactivity (% ID) Small intestine [1]: 0.1 ± 0.1 % ID
- radioactivity (% ID) Spleen [1]: 0.2 ± 0.0 % ID
- radioactivity (% ID) Stomach [1]: 0.1 ± 0.1 % ID
- radioactivity (% ID) Blood [2]: 0.0 ± 0.0 % ID
- radioactivity (% ID) Heart [2]: 0.0 ± 0.0 % ID
- radioactivity (% ID) Kidney [2]: 0.2 ± 0.0 % ID
- radioactivity (% ID) Liver [2]: 89.1 ± 1.2 % ID
- radioactivity (% ID) Lung [2]: 0.0 ± 0.0 % ID
- radioactivity (% ID) Pancreas [2]: 0.0 ± 0.0 % ID
- radioactivity (% ID) Small intestine [2]: 2.5 ± 0.7 % ID
- radioactivity (% ID) Spleen [2]: 0.2 ± 0.0 % ID
- radioactivity (% ID) Stomach [2]: 0.1 ± 0.1 % ID

Substance: ^111In-DO3ABn-Phe-Lys-NGA
- radioactivity (% ID) Blood [3]: 0.1 ± 0.0 % ID
- radioactivity (% ID) Kidney [3]: 0.2 ± 0.0 % ID
- radioactivity (% ID) Liver [3]: 91.1 ± 6.2 % ID
- radioactivity (% ID) Lung [3]: 0.1 ± 0.0 % ID
- radioactivity (% ID) Small intestine [3]: 0.1 ± 0.1 % ID
- radioactivity (% ID) Spleen [3]: 0.2 ± 0.0 % ID
- radioactivity (% ID) Stomach [3]: 0.1 ± 0.1 % ID
- radioactivity (% ID) Kidney [4]: 0.9 ± 0.3 % ID
- radioactivity (% ID) Liver [4]: 49.5 ± 5.6 % ID
- radioactivity (% ID) Lung [4]: 0.1 ± 0.1 % ID
- radioactivity (% ID) Small intestine [4]: 27.8 ± 6.5 % ID
- radioactivity (% ID) Spleen [4]: 0.2 ± 0.1 % ID
- radioactivity (% ID) Stomach [4]: 1.1 ± 0.7 % ID
